Residue numbers refer to the chain shown, from its start.
What was measured:
[1] = target: BsoBI pseudorevertant 6c E46V/D61E/S94T/D246A (UniProt P70985); assay: cleavage_in_vitro; details: pUC19, 65 C
BsoBI D246N D246N = target: T1, BsoBI D246N D246N (UniProt P70985); assay: cleavage_in_vitro; details: cell extract
T1 sequence: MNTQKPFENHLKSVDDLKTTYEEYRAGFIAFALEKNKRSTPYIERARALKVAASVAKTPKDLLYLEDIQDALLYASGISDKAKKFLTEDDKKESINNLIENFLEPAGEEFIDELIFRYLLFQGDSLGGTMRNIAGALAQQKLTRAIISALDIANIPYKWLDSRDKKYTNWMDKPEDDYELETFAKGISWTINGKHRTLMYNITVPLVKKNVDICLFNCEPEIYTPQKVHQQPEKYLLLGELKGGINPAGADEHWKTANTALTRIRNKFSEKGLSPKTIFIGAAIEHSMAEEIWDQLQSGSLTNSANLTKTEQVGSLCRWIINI

BsoBI D246E D246E = target: T2, BsoBI D246E D246E (UniProt P70985); assay: cleavage_in_vitro; details: lambda or pUC19; purified D246E also lacked measurable cleavage
T2 sequence: T1 sequence with N246E

BsoBI D246Q D246Q = target: T3, BsoBI D246Q D246Q (UniProt P70985); assay: cleavage_in_vitro; details: cell extract
T3 sequence: T1 sequence with N246Q

PvuII K93R/R105H = target: T4, PvuII K93R/R105H (UniProt P23657 P23657:1-157, K93R/R105H); assay: cleavage_in_vitro; NEB buffer 2, 37 C, 1.5 h; details: tags: His-tag; chain copies: 2 inferred
T4 sequence: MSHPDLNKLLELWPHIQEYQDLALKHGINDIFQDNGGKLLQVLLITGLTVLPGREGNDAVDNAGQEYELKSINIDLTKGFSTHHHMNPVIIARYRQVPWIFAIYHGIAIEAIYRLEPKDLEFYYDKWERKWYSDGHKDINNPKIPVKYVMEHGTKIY
Text: (§1) In order to test the cleavage specificity of the mutant endonucleases, two substrates were designed such that a limited number of sites related to the PvuII cognate sequence were present. A 1042 bp DNA substrate, corresponding to bases 317-1359 of the pUC19 sequence (GenBank #L09137), was amplified from pUC19. This substrate contains a unique PvuII site 631 bp from one end. A second, 1270 bp DNA substrate was amplified from the region corresponding to bases 6010-7280 of pTYB1 (New England Biolabs, Beverly, Mass.). This substrate contains a unique MfeI site 1022 bp from one end, and a unique PmlI site 810 bp from the same end. These substrates were used to determine the substrate specificity of PvuII (K93R) and its variants K93R/R105H, K93R/V50A and E18K/K93R/R105H. PvuII restriction digestion was assayed in NEB buffer 2 at 37° C. for 1.5 hour (New England Biolabs, Inc., Beverly, Mass.). […] The amount of protein required to cleave the MfeI/PmlI substrate at the MfeI site is >10 μg for the K93R mutant, 0.1 μg for K93R/105H, for 0.1 μg K93R/V50A, and 0.03 μg for K93R/R105H/E18K. The amount of protein required to cleave the MfeI/PmlI substrate at the PmlI site is >10 μg for the K93R mutant, 3 μg for K93R/105H, 3 μg for K93R/V50A, and 3 μg for K93R/R105H/E18K. Cleavage of the MfeI or PmlI sites by the wild-type PvuII endonuclease was not detectible (data not shown). It is clear that, compared to K93R, these K93R variants show an increase in specific cleavage activity at CAATTG and […], while maintaining similar levels of cleavage activity at CAGCTG.

PvuII K93R/V50A = target: T5, PvuII K93R/V50A (UniProt P23657 P23657:1-157, K93R/V50A); assay: cleavage_in_vitro; NEB buffer 2, 37 C, 1.5 h; details: tags: His-tag; chain copies: 2 inferred
T5 sequence: T4 sequence with V50A, H105R
Text: as §1

PvuII E18K/K93R/R105H = target: T6, PvuII E18K/K93R/R105H (UniProt P23657 P23657:1-157, E18K/K93R/R105H); assay: cleavage_in_vitro; NEB buffer 2, 37 C, 1.5 h; details: tags: His-tag; chain copies: 2 inferred
T6 sequence: T4 sequence with E18K
Text: as §1

PvuII K93R = target: T7, PvuII K93R (UniProt P23657 P23657:1-157, K93R); assay: cleavage_in_vitro; NEB buffer 2, 37 C, 1.5 h; details: tags: His-tag; chain copies: 2 inferred
T7 sequence: T4 sequence with H105R
Text: as §1

[2] = target: T8, BsoBI pseudorevertant 9c (same as 11c) (UniProt P70985 P70985:1-323, R38S/L62I/D112Y/N169T/L238F/D246A/A248S); assay: cleavage_in_vitro; pUC19, 65 C; protein temperature sensitive; details: chain copies: 2 inferred
T8 sequence: T1 sequence with R38S, L62I, D112Y, N169T, L238F, N246A, A248S

[3] = target: T9, BsoBI pseudorevertant 29e (UniProt P70985 P70985:1-323, D246A/C317W); assay: cleavage_in_vitro; pUC19, 65 C; details: chain copies: 2 inferred
T9 sequence: T1 sequence with N246A, C317W

BsoBI pseudorevertant 8d = target: T10, BsoBI pseudorevertant 8d (UniProt P70985 P70985:1-323, N36K/D246A); assay: cleavage_in_vitro; pUC19, 65 C; details: tags: partially purified; chain copies: 2 inferred
T10 sequence: T1 sequence with N36K, N246A

[4] = target: T11, BsoBI restriction endonuclease (UniProt P70985 P70985:1-323); assay: cleavage_in_vitro; pUC19, NEB buffer 2, 65 C; details: tags: untagged, expressed from pRRS-bsoBIR in E. coli ER2683; chain copies: 2 inferred
T11 sequence: T1 sequence with N246D

GTACCCGGGGAT (double strand) [pUC19/pZZ1 CCCGGG site]
activity [1]: 4 % of wt

lambda DNA (8 BsoBI sites)
activity (BsoBI D246N D246N): < 0.001 % of wt
activity (BsoBI D246E D246E): < 0.001 % of wt
activity (BsoBI D246Q D246Q): < 0.001 % of wt

B1: pUC19 1042 bp PCR fragment, unique PvuII site (dsDNA)
DNA 1: CAGCTG
DNA 2: CAGCTG
activity (PvuII K93R/R105H): 0.01 ug protein required to cleave
activity (PvuII K93R/V50A): 0.01 ug protein required to cleave
activity (PvuII E18K/K93R/R105H): 0.03 ug protein required to cleave
activity (PvuII K93R): 0.03 ug protein required to cleave

B2: pTYB1 1270 bp PCR fragment, MfeI site (dsDNA)
DNA 1: CAATTG
DNA 2: CAATTG
activity (PvuII K93R/R105H): 0.1 ug protein required to cleave
activity (PvuII K93R/V50A): 0.1 ug protein required to cleave
activity (PvuII E18K/K93R/R105H): 0.03 ug protein required to cleave

B3: pUC19/pZZ1 CCCGGG site (dsDNA)
DNA 1: GTACCCGGGGAT
DNA 2: ATCCCCGGGTAC
activity [2]: 10 % of wt
activity [3]: 4 % of wt
activity (BsoBI pseudorevertant 8d): 5 % of wt
activity [4]: 100 % of wt

Reference: US20050003420, “Recycled mutagenesis of restriction endonuclease toward enhanced catalytic activity” (published 2005)
